Consider six molecules from patent publication US20030109431A1.

Where no end group is shown, it is not given here. The star is where a group is joined. Biotin = O=C1N[C@H]2[C@H](CS[C@H]2CCCCC(=O)*)N1

The target in assay [1] is specific cell surface receptor of synovial cells (unidentified), on human RA synovial fibroblasts (human). Kind of assay: flow cytometry competition on synovial cells, unlabeled Fgn 2.5 mg for 3 h then labeled SAC[KBtn] 1 h; signal is of bound SAC[KBtn].
Assay [2] addresses ICAM-1 (Intercellular Adhesion Molecule-1) (human) (UniProt P05362). Kind of assay: cell-based or functional assay.
Assay [3] concerns the target specific cell surface receptor of synovial cells (unidentified), on human RA synovial fibroblasts (human). Description: flow cytometry on RA #16 synovial fibroblasts, 200 ug peptide, avidin-FITC detection (avidin-FITC alone 3.6 %).
The target is the same in assay [4]. Description: flow cytometry on synovial cells, SAC[KBtn] 1 h without competitor, avidin-FITC detection (avidin-FITC alone 20.16).
Assay [5] shares this target. Description: flow cytometry on RA #16 synovial fibroblasts, 100 ug peptide, avidin-FITC detection (avidin-FITC alone 3.6 %).
For assay [6] the target is unchanged. Description: flow cytometry on RA #16 synovial fibroblasts, 100 ug peptide, avidin-FITC detection (avidin-FITC alone 13.71).
For assay [7] the target is unchanged. Kind of assay: flow cytometry on RA #16 synovial fibroblasts, 200 ug peptide, avidin-FITC detection (avidin-FITC alone 13.71).
The target is the same in assay [8]. Kind of assay: flow cytometry competition on synovial cells, unlabeled SAC 2.5 mg for 3 h then labeled SAC[KBtn] 1 h; signal is of bound SAC[KBtn].
For assay [9] the target is unchanged. Kind of assay: flow cytometry competition on synovial cells, unlabeled GPRP 2.5 mg for 3 h then labeled SAC[KBtn] 1 h; signal is of bound SAC[KBtn].
For assay [10] the target is unchanged. Kind of assay: flow cytometry on RA #16 synovial fibroblasts, 100 ug control peptide, avidin-FITC detection (avidin-FITC alone 13.71).
For assay [11] the target is unchanged. Description: flow cytometry on RA #16 synovial fibroblasts, 100 ug control peptide, avidin-FITC detection (avidin-FITC alone 3.6 %).

Sequence of ICAM-1 (Intercellular Adhesion Molecule-1) (human) (P05362 28-532): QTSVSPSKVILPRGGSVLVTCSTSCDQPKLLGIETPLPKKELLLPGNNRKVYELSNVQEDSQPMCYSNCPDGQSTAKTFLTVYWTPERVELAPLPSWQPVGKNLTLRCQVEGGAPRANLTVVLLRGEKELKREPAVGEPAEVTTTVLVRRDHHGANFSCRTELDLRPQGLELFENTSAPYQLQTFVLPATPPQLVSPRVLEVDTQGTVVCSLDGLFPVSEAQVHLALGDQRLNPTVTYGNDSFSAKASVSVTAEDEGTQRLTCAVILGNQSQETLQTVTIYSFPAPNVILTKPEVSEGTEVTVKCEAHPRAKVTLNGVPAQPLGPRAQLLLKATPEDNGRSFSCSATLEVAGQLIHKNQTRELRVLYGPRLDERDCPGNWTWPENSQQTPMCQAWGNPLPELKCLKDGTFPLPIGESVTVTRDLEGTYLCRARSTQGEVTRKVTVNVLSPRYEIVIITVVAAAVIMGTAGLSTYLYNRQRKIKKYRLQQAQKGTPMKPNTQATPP

Regarding “unlabeled fibrinogen (from UniProt P02671 20-629; P02675 31-491; P02679 27-437)”, in assay [1], the Mean is 21.6.

In the case of “T-cell LFA-1 (from UniProt P20701 26-1170; P05107 23-769) (receptor)”, in assay [2], the adherent T cell numbers, Foreskin line, GPRP 0.1 mg/ml was determined as 51 T cells; the adherent T cell numbers, Foreskin line, GPRP 1 mg/ml is 54 T cells; the adherent T cell numbers, Foreskin line, IL-1 beta 1 ng/ml turned out to be 94 T cells; the adherent T cell numbers, Foreskin line, control stood at 47 T cells. Moreover, in assay [2], the adherent T cell numbers, OA line 15, GPRP 0.1 mg/ml came to 92 T cells; the adherent T cell numbers, OA line 15, GPRP 1 mg/ml came to 113 T cells; the adherent T cell numbers, OA line 15, IL-1 beta 1 ng/ml amounted to 66 T cells; the adherent T cell numbers, OA line 15, control is 35 T cells. Also, in [2], the adherent T cell numbers, RA line 7, GPRP 0.1 mg/ml came to 184 T cells; the adherent T cell numbers, RA line 7, GPRP 1 mg/ml came out at 153 T cells; the adherent T cell numbers, RA line 7, IL-1 beta 1 ng/ml worked out at 116 T cells; the adherent T cell numbers, RA line 7, control was 80 T cells. Further, in [2], the adherent T cell numbers, RA line 8, GPRP 0.1 mg/ml stood at 99 T cells; the adherent T cell numbers, RA line 8, GPRP 1 mg/ml was determined as 97 T cells; the adherent T cell numbers, RA line 8, IL-1 beta 1 ng/ml came out at 58 T cells; the adherent T cell numbers, RA line 8, control amounted to 29 T cells.

Turning to GPRVVERHQSACK(Biotin) [biotinylated amino acid sequence 17-28 of human fibrinogen Aα chain, …[KBtn]], the figures for the % Cells Positive in assay [3] and in assay [5] were 80% and 86.3%, respectively. For the same molecule, in assay [4], the Mean was 51.2. In addition, the figures for the Mean Fluorescent Channel in assay [6] and in assay [7] were 258 and 125, respectively.

The molecule GPRVVERHQSAC [unlabeled …] had a Mean in assay [8] of 36.3.

Regarding H-GPRP-OH [synthetic tetrapeptide Gly-Pro-Arg-Pro], in assay [9], the Mean was 33.6.

GHRPLDKKREEK(Biotin) showed a Mean Fluorescent Channel in assay [10] of 20.4. The % Cells Positive in assay [11] was 10.6%.
